For one assay, the target named is hIAPP-T7n (UniProt P00573+P10997). The settings on record: for Percent total reads (positive selection) / Rank (positive selection): positive selection on hIAPP, high-throughput sequencing; for Rank (positive selection): top enriched sequences. The text has this: Next, we examined if our system could discover inhibitors of other disease-associated APPs. We targeted human islet amyloid polypeptide (hIAPP), which forms amyloid deposits in patients with type-2 diabetes that are hypothesized to contribute to […] dysfunction.^40 To create a selection for hIAPP aggregation inhibitors, we simply cloned hIAPP in place of Aβ42 in our selection circuit (FIG. 2B). We used an SP-encoded CZ6 SICLOPPS library (Z=NDT codon encoded amino acid: R, N, D, C, G, H, I, L, F, S, Y, or V) (˜3×10^6 total sequences). This codon set was chosen to reduce the theoretical library size and facilitate library cloning. The library (total of ˜5×10^6 transformants) was cloned on a SP obtained from an additional 250 hours of PACE using a more stringent selection (FIGS. 10A-10D).
hIAPP-T7n, sequence (P10997+P00573 fused): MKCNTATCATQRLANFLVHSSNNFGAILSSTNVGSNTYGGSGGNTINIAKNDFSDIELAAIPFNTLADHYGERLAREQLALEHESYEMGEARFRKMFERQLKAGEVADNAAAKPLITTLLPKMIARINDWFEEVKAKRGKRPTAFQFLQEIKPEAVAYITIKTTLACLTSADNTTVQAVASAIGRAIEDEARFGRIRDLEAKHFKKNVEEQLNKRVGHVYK
We performed five rounds of selection, diluting the SP pool by ten-fold each round (FIG. 4A). […] To verify that we selected phage with higher activity, we measured the propagation of the SP from each round on hIAPP selection cells, normalizing input phage titers to […] to enable head-to-head comparison between phage pools.
(§1) Single colonies of host cells transformed with the appropriate selection plasmids were used to make overnight cultures in 2×YT with maintenance antibiotics. The overnight culture was diluted (1:100) into 4-5 mL DRM with maintenance antibiotics and incubated at 37° C. with shaking until the OD600 of the culture reached ˜0.5, upon which the expanded phage library was added at a titer of 1×10^6 pfu/mL. The culture was incubated at 37° C. with shaking overnight (13-18 h). The next day, the culture was centrifuged at 8,000 rcf for 2 min to obtain the supernatant containing phage. The collected phage was diluted into fresh host cell cultures (10 to 1,000-fold) for the next round of selection, while the rest was stored at 4° C. for downstream analysis. This process was repeated until a significant increase in phage propagation was observed compared with the parent library. Both positive and negative selection rounds were performed using this procedure.
(§2) Sample preparation. Phage stocks collected from the final rounds of library selection were first amplified using LY0145 and LY0146. The PCR product was purified, and adapters added using LY0147 and LY0148. The resulting PCR product was purified and barcoded through a final PCR using index primers to add unique indices for shared Illumina NovaSeq sequencing. The final PCR product was purified, and the concentration measured by Nanodrop. Further sample quality control was performed by the University of Wisconsin-Madison Biotechnology Center (UWBC).
(§3) High-throughput sequencing and data analysis. High-throughput sequencing was performed by UWBC using a shared sequencing service on the NovaSeq 6000 platform. Sequencing reads were demultiplexed by UWBC and analyzed using custom-written Python scripts.

The target of a further assay is Aβ42-T7n (UniProt P00573+P05067). The settings on record: for Fold enrichment in negative vs. positive selection: percent reads negative vs. positive selection; for Percent total reads (negative selection) / Rank (negative selection): subsequent negative selection against Aβ42, high-throughput sequencing.
Aβ42-T7n, sequence (P05067+P00573 fused): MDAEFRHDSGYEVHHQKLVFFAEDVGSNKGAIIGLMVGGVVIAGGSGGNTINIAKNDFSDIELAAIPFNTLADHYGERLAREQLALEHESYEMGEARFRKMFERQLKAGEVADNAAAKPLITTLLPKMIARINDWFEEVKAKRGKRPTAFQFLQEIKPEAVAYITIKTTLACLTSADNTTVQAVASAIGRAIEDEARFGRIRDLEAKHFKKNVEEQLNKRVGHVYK
From the text: To create a negative selection, we placed gIII-neg, a dominant-negative form of gIII,^44 under PT7 in our selection circuit. Inhibition of a non-target APP (ex. Aβ42) triggers pIII-neg expression and poisons phage proliferation. A second plasmid produces small amounts of pIII from the phage shock promoter (FIG. 16A). All SPs infecting cells encoding this negative selection receive sufficient pIII to propagate. However, SP that carry a promiscuous or false positive cyclic peptide will also produce pIII-neg and generate non-infectious progeny (FIGS. 16B and 16C). We subjected the hIAPP round 5 phage population to four rounds of negative selection, diluting the phage by 100-fold each round (FIG. 5B).
as §1, §2, §3

The target of assay [1] is T1, hIAPP (Homo sapiens, UniProt P10997).
T1 construct: A 1 mg portion of amylin trifluoroacetate salt (Bachem) was purchased as lyophilized solid in a vial; purchased Bachem
T1 sequence (P10997 34-70 limits assumed): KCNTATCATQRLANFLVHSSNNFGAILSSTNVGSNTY
Put plainly: TEM analysis of hIAPP fibril formation. It counts as biochemical. The settings on record: 10 μM hIAPP, 40 μM cyclic peptide; for hIAPP fibril formation / aggregation onset by TEM: 2 h; for morphology of hIAPP fibrils by TEM: longer incubation (14 h). On the procedure: Transmission electron microscopy (TEM) was performed at the University of Wisconsin School of Medicine and Public Health Electron Microscopy facility. hIAPP and cyclic peptide were dissolved in 25 mM sodium phosphate buffer (pH 6.8 with 0.4% DMSO) to achieve a molar ratio of 1:4 at concentrations of hIAPP=10 μM and cyclic peptide=40 μM. The sample was incubated quiescently at 32° C. before TEM analysis. 2 μL of the sample was placed onto Formvar-coated copper grids and the excess liquid was blotted away. 2 μL of diluted Nano-W solution was then added to stain the grids and the excess liquid was blotted away. The TEM analysis was performed on Philips CM120 at 80 kV and digital images were obtained with an AMT BioSprint12 camera.

Assay [2] has as its target T1, hIAPP. Put plainly: Native mass spectrometry (nESI-MS) of peptide-hIAPP interaction. The settings on record: peptide:hIAPP stoichiometry of complex. It counts as binding. On the procedure:
hIAPP was dissolved in 200 mM ammonium acetate buffer (pH 7.4) to prepare 100 μM hIAPP stock solution. Cyclic peptide was first dissolved in DMSO to 10 mM, then diluted into the buffer to make 1 mM cyclic peptide stock solution. These stock solutions were diluted into the buffer to achieve final concentrations of [hIAPP]=16 μM and [cyclic peptide]=64 μM. The percentage of DMSO in the final solution was 0.64% for all the samples. Prepared samples were incubated quiescently for 20 min at 32° C. Native ESI-MS analysis was then performed on a SELECT SERIES Cyclic IMS Q-TOF (Waters Corp., Wilmslow, U.K.) equipped with nano-ESI interface.
All the samples were analyzed using positive ionization ESI with a capillary voltage of 1.1 kV. The following instrumental parameters were used: source temperature 100° C.; desolvation temperature 250° C.; sampling cone 30 V; backing pressure 2.5 mbar; trap collision energy 6 V; trap DC −4 V; transfer collision energy 4 V. The system was calibrated with NaI cluster ions from a 2 μg/μL 50:50 2-propanol:water solution. Data were acquired over the m/z range of 50-8000 and processed using MassLynxV4.2 (Waters Corp., Wilmslow, U.K.).

“CRCVFSG (cyclised; Circular) [cyclo-CRCVFSG]”: in the assay with hIAPP-T7n, the “Percent total reads (positive selection)” value stood at 0.04% and the “Rank (positive selection)” value came to 20. For the same substance, in the assay with Aβ42-T7n, the “Fold enrichment in negative vs. positive selection” value is 701.46, the “Percent total reads (negative selection)” value stood at 24.55% and the “Rank (negative selection)” value is 2. In addition, in the assay with hIAPP [1], the “hIAPP fibril formation / aggregation onset by TEM” value was “delay hNAPP aggregation” and the “morphology of hIAPP fibrils by TEM” value is “do not change the overall appearance”. The “complex with hIAPP detected by native mass spectrometry” value (shortened to “complex with hIAPP detected”) in the assay with hIAPP [2] is recorded as 1:1 complexes.

For the substance “CDLGVFR (cyclised; Circular) [cyclo-CDLGVFR]”, in the assay with hIAPP-T7n, the “Percent total reads (positive selection)” value came out at 0.08% and the “Rank (positive selection)” value was determined as 14. Further, in the assay with Aβ42-T7n, the “Fold enrichment in negative vs. positive selection” value came out at 410.79, the “Percent total reads (negative selection)” value is recorded as 31.22% and the “Rank (negative selection)” value is on record as 1. Moreover, in the assay with hIAPP [1], the “hIAPP fibril formation / aggregation onset by TEM” value is “delay hNAPP aggregation” and the “morphology of hIAPP fibrils by TEM” value is “do not change the overall appearance”. Also, in the assay with hIAPP [2], the “complex with hIAPP detected” value is listed as 1:1 complexes.

Take “CHVVGVI (cyclised; Circular) [cyclo-CHVVGVI]”: in the assay with hIAPP-T7n, the “Percent total reads (positive selection)” value worked out at 94.40% and the “Rank (positive selection)” value was found to be 1. In the assay with hIAPP-T7n (round 5 of hIAPP positive selection, deep sequencing), the “share of sequencing reads in SP pool” value is about 95%. Moreover, in the assay with Aβ42-T7n, the “Fold enrichment in negative vs. positive selection” value is recorded as 0.003, the “Percent total reads (negative selection)” value came out at 0.29% and the “Rank (negative selection)” value is recorded as 20. In the assay with hIAPP [1], the “hIAPP fibril formation / aggregation onset by TEM” value is recorded as “no fibrils are observed” and the “morphology of hIAPP fibrils by TEM” value is on record as “No gross differences in morphology”. Also, in the assay with hIAPP [2], the “complex with hIAPP detected” value is reported as 1:1 complex.

For the origin of these results see patent US20250122242A1, “SELECTION SYSTEMS, PEPTIDES DETERMINED THEREWITH, AND METHODS OF USING SAME” (Wisconsin Alumni Research Foundation, priority 2023, published 2025).
